Experimental data from patent US20180112193A1, “CSF1 THERAPEUTICS” (University Court Of The University Of Edinburgh, priority 2013, published 2018).

What was measured:
[1] = test system: male C57BI6 mice; assay: Paracetamol intoxication in mice; assay type: in vivo, mouse; details: administered 12 hours following paracetamol intoxication; Day 4
Procedure: (§1) Forty-eight male C57BI6 mice aged 10-12 weeks underwent either 2/3 partial hepatectomy, paracetamol intoxication or chronic liver injury plus 2/3 partial hepatectomy. 2/3 partial hepatectomy was performed by ligating the left lobe and left and right median lobes. Paracetamol intoxication was performed by intraperitoneal administration of 350 mg/kg paracetamol dissolved in phosphate buffered saline (PBS). Chronic liver injury plus 2/3 partial hepatectomy was performed by eight weeks intraperitoneal carbon tetrachloride administration 1 mcl/g twice weekly dissolved in olive oil followed by ⅔ partial hepatectomy as described above. […] Control mice (n=8 per injury model) received subcutaneous PBS of appropriate volume. All mice were culled on day 4 following injury (partial hepatectomy or paracetamol intoxication).
(§2) Following a midline laparotomy the liver was excised and weighed. Liver weight to body weight ratio was calculated and expressed as a percentage. Livers were fixed in 4% formalin overnight then transferred to 70% ethanol. Livers were then embedded in paraffin blocks and 4 μm sections cut. Immunohistochemistry for Ki67 (a marker of cellular proliferation expressed throughout the cell cycle) was performed following heat mediated antigen retrieval in Tris/EDTA solution at pH9. Hepatocyte proliferation was quantified by counting ki67 positive hepatocytes in 20 high powered fields (400×) per animal and the mean calculated.
Hepatic CSF1 gene expression was assessed in mice following paracetamol intoxication (350 mg/kg paracetamol IP following overnight fast) at time points up to 4 days, showing peak CSF1 gene expression at day 2 (FIG. 14A).

[2] = test system: male C57BI6 mice; assay: Murine models of acute and acute-on-chronic liver injury (all three injury models); assay type: in vivo
Procedure: as §1, §2
The effects of Fc-CSF1 on liver regeneration in murine models of acute liver injury (partial hepatectomy; paracetamol intoxication) and acute-on-chronic liver injury (chronic liver injury plus partial hepatectomy) were studieD. The treatment group (n=8 per injury model) received 0.5 mcg/g Fc-CSF1 administered subcutaneously immediately following either partial hepatectomy or paracetamol intoxication and subsequently every 24 hours for three further doses. Control mice (n=8 per injury model) received subcutaneous PBS of appropriate volume. […]

[3] = test system: Ba/F3 CS1R reporter cell line; assay: Proliferation of Ba/F3 CS1R reporter cell line (MTT cell viability assay); assay type: cell-based, porcine; details: data not shown
Procedure: Stable Ba/F3 cells expressing porcine CSF-1R were maintained in culture with complete RPMI supplemented with either 10^4 Units/ml rh-CSF-1 or 10% IL-3 conditioned medium prior to MTT assay. 2×10^4 cells/well (Ba/F3 cells and Ba/F3 transfectants), or 5×10^4 cells/well (pig BMM) of a 96 well plate were plated in triplicate or quadruplicate and appropriate treatment (serial dilutions of rh-CSF-1 or porcine Fc CSF-1 were added to make a total volume of 100 μl per well. Cells were incubated for 48 hours at 37° C. with 5% CO2. For Ba/F3 cells, 10 μl of MTT (Sigma Aldrich M5655) stock solution (5 mg/ml) was added directly to each well to achieve a final concentration of 0.5 mg/ml and incubated at 37° C. for 3 hours prior to solubilisation overnight. For adherent mouse BMM cells, culture medium was replaced with 50 μl of 1 mg/ml MTT solution and incubated for 1 hour at 37° C. MTT solution was removed and tetrazolium salt solubilised with 100 μl of solubilisation agent (0.1M HCL, 10% Triton x-100 and isopropanol) followed by incubation at 37° C. with 5% CO2 for 10 minutes. Plates were read at 570 nm with reference wavelength of 405 nm.
Mice were injected with Fc-CSF-1 subcutaneously on each of 4 days and sacrificed on the 5th day. The mice were csf1r-EGFP (MacGreen) mice on the C57BI/6 background. […]

[4] = test system: weaner pigs; assay: Preliminary experiment on weaners, circulating monocytes; assay type: in vivo, pig; details: three treatments with 0.4 mg/kg every alternative day
Procedure: Note that the peak plasma level obtained is only around 100 ng/ml, and it is completely cleared by 20 hours. By contrast, Fc-CSF-1 (FIGS. 9B and C) attains 100-fold higher plasma concentrations and remains elevated for up to 72 hours. A preliminary experiment on weaners determined that three treatments with 0.4 mg/kg with Fc-CSF-1 every alternative day produced a 2-3 fold increase in circulating monocyte numbers.

[5] = test system: male C57BI6 mice; assay: Chronic liver injury (carbon tetrachloride) plus 2/3 partial hepatectomy in mice; assay type: in vivo, mouse; details: for mouse body weight: p<0.001 at day 4
Procedure: as §1, §2
The effects of Fc-CSF1 on liver regeneration in murine models of acute liver injury (partial hepatectomy; paracetamol intoxication) and acute-on-chronic liver injury (chronic liver injury plus partial hepatectomy) were studieD. […] Control mice (n=8 per injury model) received subcutaneous PBS of appropriate volume.
CSF1-Fc or control was administered to mice immediately following 2/3 partial hepatectomy on a background of 8 weeks carbon tetrachloride induced chronic liver injury (1 mcl/g carbon tetrachloride/mouse 2×/week).

[6] = all injury models, vs PBS control
[7] = chronic liver injury with 2/3 partial hepatectomy, vs control

B1: Fc-CSF-1: active fragment of porcine CSF-1 (SEQ ID NO:1) linked to the hinge-CH3 region of porcine IgG1a (SEQ ID NO:2) (protein, listed as Sus scrofa)
chain: SENCSHMIGDGHLKVLQQLIDSQMETSCQIAFEFVDQEQLTDPVCYLKKAFLQVQDILDETMRFRDNTPNANVIVQLQELSLRLNSCFTKDYEEQDKACVRTFYETPLQLLEKIKNVFNETKNLLKKDWNIFSKNCNNSFAKCSSQHERQPEGRGTKTKPPCPICPGCEVAGPSVFIFPPKPKDTLMISQTPEVTCVVVDVSKEHAEVQFSWYVDGVEVHTAETRPKEEQFNSTYRVVSVLPIQHQDWLKGKEFKCKVNNVDLPAPITRTISKAIGQSREPQVYTLPPPAEELSRSKVTVTCLVIGFYPPDIHVEWKSNGQPEPEGNYRTTPPQQDVDGTFFLYSKLAVDKARWDHGETFECAVMHEALHNHYTQKSISKTQGK
[1]
  hepatocyte proliferation: increasing
  liver weight to body weight ratio: significantly increasing
[2]; [6]
  hepatic weights: growth promoting effect
  hepatocyte proliferation: growth promoting effect
[2]; subcutaneously immediately after injury, then every 24 hours for three further doses
  tolerability of interventions and treatments: well tolerated
[3]
  biological activity (proliferation) compared with recombinant pig CSF-1: no difference in biological activity
[4]
  increase in circulating monocyte numbers: 2-3 fold
[5]; [7]
  fibrosis assessed by Sirius red quantification: trend to reduction
  liver weight to body weight ratio: increased significantly
  number of proliferating hepatocytes: increased significantly
  mouse body weight: significant increase in mouse weight
[5]; chronic liver injury with 2/3 partial hepatectomy, vs control, listed as CSF1-Fc
  mouse body weight: significant increase in body weight
[5]; chronic liver injury with 2/3 partial hepatectomy, vs control, p=0.08
  survival: trend to improved survival
[5]; day 4 post hepatectomy
  serum ALT: significant reduction
  serum bilirubin: significant reduction
